This passage reports fold reduction of binding on addition of DnaK (with DnaJ) results from PMC6995612.

This assay concerns the target Firefly Luciferase, heat-aggregated [luciferase: P08659]. Kind of assay: co-sedimentation; 1.5 μM ClpG-DWB with 2 μM aggregated Luciferase in buffer A (50 mM Tris pH 7.5, 50 mM KCl, 10 mM MgCl2, 2 mM DTT), 2 mM ATP, 25 °C, 10 min; 1 μM DnaK with 0.2 μM DnaJ added to selected reactions; centrifugation at 13,000 rpm, pellet washed once; SDS-PAGE, Coomassie, ImageJ; control without aggregated Luciferase.

“P. aeruginosa ClpGGI-E383A/E732A (enzyme)”: the fold reduction of binding on addition of DnaK (with DnaJ) amounted to 1.86 fold.
